# Assay results: the DeepSol protein solubility set
# Assay: soluble on expression in E. coli; label from the status in PepcDB or PDB records
row,Sequence,soluble on expression in E. coli
1,GTTKISVPVPPPDANFPPSAAPVFYNPEMELNRDINVAATAAFVERLLSKKDILREEIRYVDAFSASGIRGLRIAGEVGIHSTMNDWSHEAFELIKENIKINGLEEKAQATRRNANVLLHEQRFHIVDVDPFGTPSPYLDAAASSAYSMLSVTATDTAPLCGAHLNSGIRKYASVPLNTEYHSEMGLRVLLGACARELAKHEKGMLPLLSHVTRHYVRTYLEVLPGSRKADKTLKSMGFVAHCPRCGFRKPVYGLAVHIEKECPECGGLTKIAGPLWLGPYREPEFCNEVISELEAHPLNTKEKVRKIITFCRDELDIPMFYDQHVICKELGASATGIESLIEALRAGGFEASRTHFTGTSFKTDAPIAEIKKIILALSG,not soluble
2,MAHHHHHHMSLVASQEGLTDLVPCNDQCGGDYTLYTFGQSEKEVTITAPLAPGTRGKSLRVDIKVRHLQIEVPGKGTILAGELYKPINVDDSTWCIQDGKELVVVLTKTNIEYEEWWPHVVIGERQIDLKTLKPPSIRFSDLDGGAQATVAKMMHEQHEKRTDPAFTNA,soluble
3,MLEYKLIRSKRRKTLALQVKHGQVTVRAPHYVTSAFIDTFIQEKSAWLRSKLAEQQKTPEYCDFSQGSNLLYLGEKVILNICIAKKSEVYFSHLVIAEIEPKNYQEITTKQLNVAISEKIHSRLINPLAISKQIKKQLEVYFKQQAEQLFSERLERISKQISLCPTAINIRQYRARWGSCNNRGEVSFNYLLMMTPLTVIDYVIVHELCHLEHLNHSKEFWHLVEKFCPNYEIAKKWLNTYQSLEHHHHHH,soluble
4,MGSDKIHHHHHHMEQYKEVHINSLNKEELEKLAKMGQLIDVRTKEEYELGHINGSTLHPVEEIKSFNKNSNKTYYIHCKSGNRSTKACDYLAKQGYDVVNLKGGYKDYEAKNFNSAPLIEKDIEIKENRKQFDFRGLQCPGPIVNISKEINNISTGEQIEVTVTDPGFNSDIKSWAKQTGNTLVNLTEEANVINAIIQKEKPKEFEINDTATGTTIVLFSGELDKAVAAMIIANGAKAAGKDVTIFFTFWGLNALKKAQSTRVKKKGISKMFDLMLPKDPIHMPLSKMNMFGLGNIMMRYVMNKKNVDSLYSLIDQAIDQDIKLIACTMSMDVMGISKEELRDEVDYGGVGTYIGHTEQANHNLFI,not soluble
5,MKRLIICNGNKLTVCTQAISSGGIVEKYTPIFSLTKESDNELTLELSGVARGYYIIPSELTSSQARAAHLITLLTRAEESQTTDMHKILNSFVSGKITSGSMFNFENDGSFKREPEEAYNLINKI,not soluble
6,MLKIIRAGMYTTVQDGGRHGFRQSGISHCGALDMPALRIANLLVGNDANAPALEITLGQLTVEFETDGWFALTGAGCEARLDDNAVWTGWRLPMKAGQRLTLKRPQHGMRSYLAVAGGIDVPPVMGSCSTDLKVGIGGLEGRLLKDGDRLPIGKSKRDSMEAQGVKQLLWGNRIRALPGPEYHEFDRASQDAFWRSPWQLSSQSNRMGYRLQGQILKRTTDRELLSHGLLPGVVQVPHNGQPIVLMNDAQTTGGYPRIACIIEADMYHLAQIPLGQPIHFVQCSLEEALKARQDQQRYFEQLAWRLHNEN,soluble
7,MMLSATQPLSEKLPAHGCRHVAIIMDGNGRWAKKQGKIRAFGHKAGAKSVRRAVSFAANNGIEALTLYAFSSENWNRPAQEVSALMELFVWALDSEVKSLHRHNVRLRIIGDTSRFNSRLQERIRKSEALTAGNTGLTLNIAANYGGRWDIVQGVRQLAEKVQQGNLQPDQIDEEMLNQHVCMHELAPVDLVIRTGGEHRISNFLLWQIAYAELYFTDVLWPDFDEQDFEGALNAFANRERRFGGTEPGDETA,soluble
8,MGSDKIHHHHHHMIELIATAESVEQAVELLATGVDTLYIGEETFGLRLPVSFTRDEQREIVKRAHEMGKQVLVAVNGIMHPEKMKLVPEYLTFLKEINVDKITLGDPGIVFIMQRDGLEIPYVYDGETLVTSSRQINFWSKRGAIGAVLAREVPFEEMVAMEENLAVPAEILVYGATCIHQSKRPLIQNYYNYTKNDKGVTKDEGLFISEPKKPETHYSIYEDSHGTHIFANNDVNLMNELTNLYDHHYRTWKLDGLYTPGENFVAIARLFAEAKAALEAGTWSEDQAAHATAEIEKLHPTGRGLDNGFFDLSADAIK,not soluble
9,MAHHHHHHMQRQVIRRLGNRSAFPLVAAVARSSQIRGAVRGDSGSRARVIPSFMCSLRAYSGGHHEEPSSRSGQYLLDKSDVLTRVLEVVKNFEKVDASKVTPESHFVKDLGLNSLDVVEVVFAIEQEFILDIPDHDAEKIQSIPDAVEYIAQNPMAK,soluble
10,MAHHHHHHMAVGKNKRTSKGKKGGKKKVTDVFTKKEWYDLKAPKMFLVRNFGKTLVTKTIGKKLATDSLKGRIYEVNLADLNNDEDQAHKKIKLSCDHIINRDCYTDFCGLSITRDKLCSLIRKGYTLIEGHTDVKTLDNYHLRMFCIAFTKKRQNQTKSTCYAQTSQIKKIRKKMVDIMTAEASKVLLKDLVKKFIPESIGKEIEKQCKKIYPLQNVLIRKVKILKRPKLDISKLMELHTDPKEESGKNVNALPESKEATNILTAELKH,not soluble
11,MSLKEKLVAIVGPTAVGKTKTSVMLAKRLNGEVISGDSMQVYRGMDIGTAKITAEEMDGVPHHLIDIKDPSESFSVADFQDLATPLITEIHERGRLPFLVGGTGLYVNAVIHQFNLGDIRADEDYRHELEAFVNSYGVQALHDKLSKIDPKAAAAIHPNNYRRVIRALEIIKLTGKTVTEQARHEEETPSPYNLVMIGLTMERDVLYDRINRRVDQMVEEGLIDEAKKLYDRGIRDCQSVQAIGYKEMYDYLDGNVTLEEAIDTLKRNSRRYAKRQLTWFRNKANVTWFDMTDVDFDKKIMEIHNFIAGKLEEKSKEGHHHHHH,soluble
12,HNGWTWEASLNLSANRNKLTELASGSKDDKANNWFVGHPIDCIYDYEKVGLWNSDDPDFQYLDILEPGGNEGMIKVKYTGDRDASGKPTRAIGPEDRQIISLEPKFQGGFSTRVAYKGFDLNVITAFRCGGKLISTLHHSNGYLNMLTGRRGQVDVDYWTPENKGAKYPKPGGIQSGDNPKYGSTLGYFDSSYWKVRNITLGYNFEKQAWLTRMGIQSLRAYLSVQNPFIICSPFHKETGLDPETNSYGNENVAVTEGIQKRFLTVGTNSPSTRNYLFGINLTF,not soluble
13,MSLRSMFMYKSHIPEDCEEEAQITAAKLILLVDDDPVFRRMTKGYLQKYGYQVIEAENGLDGLRKLRDHEPDLILCDLSMPVLNGIEFVEEVSSSYPSLPLVVVSATEEMADVAKALRFGIKDFLPKPITNHSHLASAIEKVLANDDHQRDFASCWYGADRQGSIPEEQELHWHLQYLKDNPNAAKELLEALLPEKDSQLGSWKCSYRLLQSAELMPLVFDYAWLMNGQFVFYVVDAASHRECGAASTLLVRALFHDYLRNLRNFSVELKDLAEIIERGIHCSECIGKVSALFGVADLADGTLSLLPAGLDCQWSNGYVHNRITSGVQLGDNSLRNFITKDLPIRAACQISLSKPSAYSFTLDLYQGEGHHHHHH,soluble
14,MNNHFKCIGIVGHPRHPTALTTHEMLYRWLCTKGYEVIVEQQIAHELQLKNVKTGTLAEIGQLADLAVVVGGDGNMLGAARTLARYDIKVIGINRGNLGFLTDLDPDNAQQQLADVLEGHYISEKRFLLEAQVCQQDCQKRISTAINEVVLHPGKVAHMIEFEVYIDEIFAFSQRSDGLIISTPTGSTAYSLSAGGPILTPSLDAITLVPMFPHTLSARPLVINSSSTIRLRFSHRRNDLEISCDSQIALPIQEGEDVLIRRCDYHLNLIHPKDYSYFNTLSTKLGWSKKLFMAGDPLEHHHHHH,soluble
15,AIAELTGQRLREGDGPDGPADDGAGAQADLEHSLLVAAEKKDEGPYRMEHFRWGSPPKDKRYGGFMTSEKSQTPLVTLFKNAIIKNAYKKGE,soluble
16,MGSDKIHHHHHHVKTRFFCQSCGQESPRWLGKCPGCGEWNTLVEEVVERAAAKRTPLGVKATPLTEIQIREEERVSSGSQELNRVLGGGIVPGSFVLLGGEPGIGKSTLLLQTAGLLAKGMDVLYISGEESEKQIKLRAERLGIKESRLHILTETRLEVVRDVALAMGPGLLIVDSIQTMVLEELQAAAGSVSQVREGAAFLMRLAKEEEIPIFLVGHVTKEGAIAGPRVLEHIVDTVLYFEGDRHHVYRLLRAVKNRFGSTNEIGVFEMHEDGLVEVPNPSKVFLGENSATAPGSSVAVIVEGSRPLLVEIQALVTPTTYGPPRRTATGIDYNRILMLLAVLDKKVGLHLGAQDVFINIAGGIRIDEPGVDLACIAAIASSLGERPLKRYALVGEVGLTGEVRGISQIEKRVKEAVKLGFEGCIIPRINVSAVKVPGNFTVIAVKTVEEAVQVMFEQ,not soluble
17,MGSDKIHHHHHHMISSITSSIPKDVLYAAAEWYATLYDEDCSENDRQTWQRWLHEDETHRLAWQQVEQIHARFHAVDSQLASSVLSRRGEERRRMLKLLVIASVTGGVGFSLPWDSYAADYRTGTGETRELSIETGMTVWLNTDSALNQQGNPALSQPLTFQLIKGELMLDNQTAHAARLTTPHGDLAAAAYSCQLALRYTSAHSVLSVFSGEVLLQTAVPAAQRVTAGQQVIFTRDRCSEPAPVENFRQSWRKGLLVADSMPLGQLINEISRYHNGYFHVDSAVTNLRISGVFPLHETDRLLDAIVRTLPVKVSRRFSWWVDIRPS,not soluble
18,MTVVIGLTGGIASGKSTVSQMFRELSIPVIDADIIAREVVEKGKPAYNKIVEVFGTEVLQEDGELDRPKLGSVVFYNEEKRLQLNKIVHPAVREEMNRQKEMYIKEGMQAVVLDIPLLFESKLTSLVDRVLVVAVKPHTQLERLMKRNNFSEEEATARIQSQMPLEEKVKNADEVINNDGTIMGTKTQLQAILKKWNIID,not soluble
19,MSLSRVFVIGAAGKVGQRLIKKLGDGGHEVIALHRKEEQSVLIKAAGALPLLANLVEMDAAALSSAMAGSDVVVFTAGAGGAGIELTNAIDGEGLKTSVAAAELAGVRRFLLVSAFPEAARGTDTSAGFENYMRVKKHADVCLASSELDWVILRPGTLVDSAGSGQVRAGLAIPYGDIPRDDVAAFLAALVDQPEISRQIIELTEGTTPVELAIKALGTREGHHHHHH,soluble
20,MNKKKFENLPKWNNFALFNFLAKDKENSLEVMVAARGFAVPGIVATNYETAEEAANVVKELQTTAEVISVGLGGGGDWQNWRDVLHIARLAPNSHINQPIETAGLTNGLLPETYTNALVRPTGKVGIVKLSSGDEITAEEAVDYCLSANIPSIKFMSIEGTKYLDELVYLTKIAADKGIYGIEPAGGIGADNILEITTAIKSTGIPFYMPHIFGKTIDKATGRTKPEEIEKIFAALEGN,soluble
